The target in this test is Est1-(myc)13 (Saccharomyces cerevisiae (from context; not stated for this protein)) (UniProt P17214). The test can be described thus: co-immunoprecipitation with anti-Rat1 peptide antibodies from extracts of yeast over-expressing Est1-(myc)13, probed for myc.
Sequence of UniProt P17214 (P17214 whole entry): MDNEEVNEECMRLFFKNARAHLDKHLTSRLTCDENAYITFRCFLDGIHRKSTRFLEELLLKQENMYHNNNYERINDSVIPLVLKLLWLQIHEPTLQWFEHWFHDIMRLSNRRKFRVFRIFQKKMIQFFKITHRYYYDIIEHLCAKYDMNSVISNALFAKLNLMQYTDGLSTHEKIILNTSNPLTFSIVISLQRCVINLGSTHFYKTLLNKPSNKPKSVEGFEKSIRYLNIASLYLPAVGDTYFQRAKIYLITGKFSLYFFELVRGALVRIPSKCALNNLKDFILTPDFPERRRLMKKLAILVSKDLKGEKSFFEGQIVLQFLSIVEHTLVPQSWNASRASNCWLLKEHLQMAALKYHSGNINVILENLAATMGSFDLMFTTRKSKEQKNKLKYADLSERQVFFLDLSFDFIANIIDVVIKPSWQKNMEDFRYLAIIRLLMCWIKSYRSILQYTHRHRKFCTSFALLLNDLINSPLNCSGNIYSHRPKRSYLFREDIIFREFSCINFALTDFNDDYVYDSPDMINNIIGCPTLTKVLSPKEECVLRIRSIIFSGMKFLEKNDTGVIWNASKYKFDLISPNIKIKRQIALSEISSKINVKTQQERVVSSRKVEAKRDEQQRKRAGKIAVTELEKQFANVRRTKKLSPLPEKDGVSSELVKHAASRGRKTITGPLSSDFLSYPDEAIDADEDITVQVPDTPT

In turn, “S. cerevisiae Rat1 protein (from UniProt Q02792 2-1006) (enzyme)” returned a co-immunoprecipitation efficiency of 5%.

(Values after US20120134928A1.)
